Source: patent US20240124553A1 (WASHINGTON UNIVERSITY, published 2024)

What was measured:
Test in all cases: flow cytometry, transfected 293T cells
[1] = biological target: T1, CHIKV E2-E1 envelope glycoproteins (strain S27), E2 mutant A76S (chikungunya virus strain S27, UniProt Q8JUX5 1-1248; Q8JUX5 810-1248)
T1 construct: whole, on cells; E2 domain A

[2] = biological target: T2, CHIKV E2-E1 envelope glycoproteins (strain S27), E2 mutant F115A (chikungunya virus strain S27, UniProt Q8JUX5 1-1248; Q8JUX5 810-1248)
T2 construct: whole, on cells; E2 domain A

[3] = biological target: T3, CHIKV E2-E1 envelope glycoproteins (strain S27), E2 mutant K66A (chikungunya virus strain S27, UniProt Q8JUX5 1-1248; Q8JUX5 810-1248)
T3 construct: whole, on cells; E2 domain A

[4] = biological target: T4, CHIKV E2-E1 envelope glycoproteins (strain S27), E2 mutant D132A (chikungunya virus strain S27, UniProt Q8JUX5 1-1248; Q8JUX5 810-1248)
T4 construct: whole, on cells; E2 domain A

[5] = biological target: T5, CHIKV E2-E1 envelope glycoproteins (strain S27), E2 mutant R104A (chikungunya virus strain S27, UniProt Q8JUX5 1-1248; Q8JUX5 810-1248)
T5 construct: whole, on cells; E2 domain A

[6] = biological target: T6, CHIKV E2-E1 envelope glycoproteins (strain S27), E2 mutant R36A (chikungunya virus strain S27, UniProt Q8JUX5 1-1248; Q8JUX5 810-1248)
T6 construct: whole, on cells; E2 domain A

[7] = biological target: T7, CHIKV E2-6K-E1 envelope proteins (strain S27) with E2 I217A (Chikungunya virus strain S27, UniProt Q8JUX5 1-1248; Q8JUX5 810-1248)
T7 construct: whole, on cells

B1: Mxra8-Fc (mouse Mxra8 extracellular domain fused to mouse IgG2b Fc) (Fc fusion)
chain: SGPSGTAAASSSLVSESVVSLAAGTQAVLRCQSPRMVWTQDRLHDRQRVVHWDLSGGPGSQRRRLVDMYSAGEQRVYEPRDRDRLLLSPSAFHDGNFSLLIRAVDRGDEGVYTCNLHHHYCHLDESLAVRLEVTEDPLLSRAYWDGEKEVLVVAHGAPALMTCINRAHVWTDRHLEEAQQVVHWDRQLPGVSHDRADRLLDLYASGERRAYGPPFLRDRVSVNTNAFARGDFSLRIDELERADEGIYSCHLHHHYCGLHERRVFHLQVTEPAFEPPARASPGNGSGHSSAPSPDPTLTRGHSIINVIVPEDHTHPSGPISTINPCPPCKECHKCPAPNLEGGPSVFIFPPNIKDVLMISLTPKVTCVVVDVSEDDPDVQISWFVNNVEVHTAQTQTHREDYNSTIRVVSTLPIQHQDWMSGKEFKCKVNNKDLPSPIERTISKIKGLVRAPQVYILPPPAEQLSRKDVSLTCLVVGFNPGDISVEWTSNGHTEENYKDTAPVLDSDGSYFIYSKLNMKTSKWEKTDSFSCNVRHEGLKNYYLKKTISRSPGK
- Binding Reactivity (% WT) [1]: 85 % WT
- Binding Reactivity (% WT) [2]: 3.3 % WT
- Binding Reactivity (% WT) [3]: 93.1 % WT
- Binding Reactivity (% WT) [4]: 105 % WT
- Binding Reactivity (% WT) [5]: 49.9 % WT
- Binding Reactivity (% WT) [6]: 68.3 % WT

B2: Mxra8-Fc (mouse Mxra8 extracellular domain fused to mouse IgG2b Fc) (Fc fusion)
chain: SGPSGTAAASSSLVSESVVSLAAGTQAVLRCQSPRMVWTQDRLHDRQRVVHWDLSGGPGSQRRRLVDMYSAGEQRVYEPRDRDRLLLSPSAFHDGNFSLLIRAVDRGDEGVYTCNLHHHYCHLDESLAVRLEVTEDPLLSRAYWDGEKEVLVVAHGAPALMTCINRAHVWTDRHLEEAQQVVHWDRQLPGVSHDRADRLLDLYASGERRAYGPPFLRDRVSVNTNAFARGDFSLRIDELERADEGIYSCHLHHHYCGLHERRVFHLQVTEPAFEPPARASPGNGSGHSSAPSPDPTLTRGHSIINVIVPEDHTHPSGPISTINPCPPCKECHKCPAPNLEGGPSVFIFPPNIKDVLMISLTPKVTCVVVDVSEDDPDVQISWFVNNVEVHTAQTQTHREDYNSTIRVVSTLPIQHQDWMSGKEFKCKVNNKDLPSPIERTISKIKGLVRAPQVYILPPPAEQLSRKDVSLTCLVVGFNPGDISVEWTSNGHTEENYKDTAPVLDSDGSYFIYSKLNMKTSKWEKTDSFSCNVRHEGLKNYYLKKTISRSPGK
- Binding Reactivity (% WT) [7]: 12.3 % WT
